Experimental data reported in paper PMC5510000, “RPA activates the XPF‐ERCC1 endonuclease to initiate processing of DNA interstrand crosslinks”.

Biological target: RPA (full-length heterotrimer) (Homo sapiens, UniProt P27694;P15927;P35244 1-616;1-270;1-121)
Test: fluorescence anisotropy; 1 mM MnCl2; Fluorescence anisotropy: nuclease buffer (composition and pH not in the material) with 1 mM MnCl2, RPA mixed 1:1 with 10 nM fluorescein-labelled DNA, 30 ul, room temperature, 10 min; sigmoidal fit
Details: protein: recombinant, copies: 1;1;1

Sequence of RPA (full-length heterotrimer) (P27694 whole entry, chain 1 of 3): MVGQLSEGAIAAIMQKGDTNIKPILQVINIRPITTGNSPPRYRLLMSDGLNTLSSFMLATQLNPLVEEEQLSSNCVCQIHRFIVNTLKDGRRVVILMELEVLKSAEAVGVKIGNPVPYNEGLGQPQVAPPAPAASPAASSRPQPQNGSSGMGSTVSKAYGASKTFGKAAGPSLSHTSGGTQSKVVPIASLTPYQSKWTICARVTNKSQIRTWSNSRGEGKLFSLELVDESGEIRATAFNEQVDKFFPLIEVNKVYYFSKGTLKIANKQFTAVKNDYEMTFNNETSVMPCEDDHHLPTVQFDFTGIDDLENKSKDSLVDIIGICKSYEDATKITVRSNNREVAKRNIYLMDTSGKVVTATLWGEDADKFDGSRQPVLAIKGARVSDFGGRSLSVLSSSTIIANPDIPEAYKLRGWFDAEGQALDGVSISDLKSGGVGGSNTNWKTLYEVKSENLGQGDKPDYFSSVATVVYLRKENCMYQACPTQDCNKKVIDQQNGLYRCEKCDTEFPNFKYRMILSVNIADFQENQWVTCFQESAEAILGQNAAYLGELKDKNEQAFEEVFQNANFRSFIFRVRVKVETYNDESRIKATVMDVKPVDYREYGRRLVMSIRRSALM
Sequence of RPA (full-length heterotrimer) (P15927 whole entry, chain 2 of 3): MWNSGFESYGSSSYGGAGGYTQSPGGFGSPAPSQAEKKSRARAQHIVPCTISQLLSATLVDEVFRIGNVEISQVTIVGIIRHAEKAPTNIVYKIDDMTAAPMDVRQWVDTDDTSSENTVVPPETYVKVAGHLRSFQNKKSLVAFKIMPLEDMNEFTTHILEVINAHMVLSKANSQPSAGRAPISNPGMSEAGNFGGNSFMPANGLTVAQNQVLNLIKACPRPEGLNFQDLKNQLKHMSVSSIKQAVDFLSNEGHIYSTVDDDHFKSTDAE
Sequence of RPA (full-length heterotrimer) (P35244 whole entry, chain 3 of 3): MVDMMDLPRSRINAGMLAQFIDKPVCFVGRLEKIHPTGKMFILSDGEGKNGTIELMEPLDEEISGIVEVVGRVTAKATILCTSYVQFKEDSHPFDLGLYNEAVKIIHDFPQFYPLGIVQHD

B1: simple fork (mixed)
DNA 1: ATAAATATTTTTTATTAATAATAGATCACCTTTCTTTCTCTTCTCCCCTT
DNA 2: TTCCCCTCCTCTCCTTCCTTCCTGATCTATTATTAATAAAAAATATTTAT
Work on B1 yielded a Kd (fork: 28 bp duplex, 22 nt 3' arm (strand 1) and 22 nt 5' arm (strand 2)) of 6.3 nM.

B2: fork + lagging strand (mixed)
DNA 1: B1 DNA 1
DNA 2: B1 DNA 2
?: GGAAGGAAGGAGAGGAGGGGAA
In the case of B2, the Kd (fork 1:2 2:3, 28 bp parental duplex, 22 bp lagging arm, 22 nt 3'-ssDNA arm on strand 1) is reported as 6.2 nM.
